In patent US20060018907A1 (published 2006):

Assays:
[1] = target: human lymphotoxin (TNFβ) (human) (UniProt P01374); experiment: cell-based or functional assay
[2] = target: human tumor necrosis factor-α (TNFα) (human, UniProt P01375 77-233); experiment: cell-based or functional assay
Chain of human tumor necrosis factor-α (TNFα) (P01375 77-233): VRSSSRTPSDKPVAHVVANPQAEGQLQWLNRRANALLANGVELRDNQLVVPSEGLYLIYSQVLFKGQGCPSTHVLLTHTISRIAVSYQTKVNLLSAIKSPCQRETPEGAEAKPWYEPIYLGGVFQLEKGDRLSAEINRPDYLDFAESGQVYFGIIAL

Chain of human lymphotoxin (TNFβ) (human) (P01374 35-205 limits assumed): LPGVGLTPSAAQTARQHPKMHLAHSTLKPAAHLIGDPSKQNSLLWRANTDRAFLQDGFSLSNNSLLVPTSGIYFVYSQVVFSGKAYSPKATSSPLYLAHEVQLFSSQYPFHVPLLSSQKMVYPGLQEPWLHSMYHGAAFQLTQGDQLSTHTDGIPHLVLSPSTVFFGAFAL

Molecule: p55-sf2 (p55 TNF receptor / IgG1 heavy chain single fusion with truncated light chain JCK) (from UniProt P19438) (Fc fusion)
- amount needed for the same inhibition of TNFβ cytotoxicity, against p75P-sf2 (fold against p75P-sf2) [1]: 3

B1: chimeric mouse/human IgG1 anti-platelet mAb (7E3) (antibody, INN chains, looked up, V domains shown)
VH: EVQLQQSGTVLARPGASVKMSCEASGYTFTNYWMHWVKQRPGQGLEWIGAIYPGNSDTSYIQKFKGKAKLTAVTSTTSVYMELSSLTNEDSAVYYCTLYDGYYVFAYWGQGTLVTVSA
VL: EIVLTQSPVTLSVTPGDSVSLSCRASRDISNNLHWFQQTSHESPRLLIKYASQSMSGIPSRFSGSGSGTDFTLSINSVETEDFGMYFCQQTNSWPYTFGGGTKLEIK
modifications: IgG1
- IL-6 secreted by FS-4 fibroblasts (ng/ml); 4 µg/ml antibody, 0.3 ng/ml TNF (no antibody: 1.36) [2]: 1.6 ng/ml IL-6
- IL-6 secreted by FS-4 fibroblasts (ng/ml); 4 µg/ml antibody, 1.5 ng/ml TNF (no antibody: 2.00) [2]: 1.96 ng/ml IL-6
- IL-6 secreted by FS-4 fibroblasts (ng/ml); 4 µg/ml antibody, 7.5 ng/ml TNF (no antibody: 2.56) [2]: 2.16 ng/ml IL-6

B2: p75-sf2 (complete extracellular domain of p75 fused to the IgG1 heavy chain, with truncated light chain) (Fc fusion)
chain: QLPAQVAFTPYAPEPGSTCRLREYYDQTAQMCCSKCSPGQHAKVFCTKTSDTVCDSCEDSTYTQLWNWVPECLSCGSRCSSDQVETQACTREQNRICTCRPGWYCALSKQEGCRLCAPLRKCRPGFGVARPGTETSDVVCKPCAPGTFSNTTSSTDICRPHQICNVVAIPGNASMDAVCTSTSPTRSMAPGAVHLPQPVSTRSQHTQPTPEPSTAPSTSFLLPMGPSPPAEGSTGDGTLVTVSS
- amount needed for 50% inhibition of TNFα cytotoxicity, against p55-sf2 [2]: ~2 fold against p55-sf2
